Reference: article PMC7725820, “Heme biosynthesis depends on previously unrecognized acquisition of iron-sulfur cofactors in human amino-levulinic acid dehydratase” (Nature Communications, 2020)
Changes are numbered by the printed parent chain.

B1: MBP-ALAD C162A (enzyme, human, UniProt P13716 1-330, looked up)
chain: MQPQSVLHSGYFHPLLRAWQTATTTLNASNLIYPIFVTDVPDDIQPITSLPGVARYGVKRLEEMLRPLVEEGLRCVLIFGVPSRVPKDERGSAADSEESPAIEAIHLLRKTFPNLLVACDVCLCPYTSHGHCGLLSENGAFRAEESRQRLAEVALAYAKAGAQVVAPSDMMDGRVEAIKEALMAHGLGNRVSVMSYSAKFASCFYGPFRDAAKSSPAFGDRRCYQLPPGARGLALRAVDRDVREGADMLMVKPGMPYLDIVREVKDKHPDLPLAVYHVSGEFAMLWHGAQAGAFDLKAAVLEAMTAFRRAGADIIITYYTPQLLQWLKEE
notes: aminolevulinic acid dehydratase (ALAD), human; source: E. coli BL21(DE3), expressed along with the isc operon, purified anaerobically (amylose resin); not shown: MBP, N-terminal, kept
B2: MBP-ALAD C223A (enzyme, human, UniProt P13716 1-330, looked up)
chain: B1 chain with A162C, C223A
notes: as for B1
B3: MBP-ALAD K252M (enzyme, human, UniProt P13716 1-330, looked up)
chain: B1 chain with A162C, K252M
notes: as for B1
B4: MBP-ALAD Mut AFR-AAA (enzyme, human, UniProt P13716 1-330, looked up)
chain: B1 chain with A162C, F307A, R308A
notes: aminolevulinic acid dehydratase (ALAD), human, Ala306-Phe307-Arg308 motif replaced by alanines; source: E. coli BL21(DE3), expressed along with the isc operon, purified anaerobically (amylose resin); not shown: MBP, N-terminal, kept
B5: N-terminally MBP-tagged human ALAD, wild type (MBP-ALAD) (enzyme, UniProt P13716 1-330, looked up)
chain: B1 chain with A162C
notes: aminolevulinic acid dehydratase (ALAD), human, wild type; One [Fe4S4] cluster per monomer when purified anaerobically; The three cofactor states (Fe-S, apo, zinc) are told apart by the assay; the ~480 kD hexamer fits it; also called ALAD WT; [Fe4S4]-ALAD; source: E. coli BL21(DE3), expressed along with the A. vinelandii isc operon, purified anaerobically (amylose resin); also purified …
B6: MBP-ALAD C119A (enzyme, human, UniProt P13716 1-330, looked up)
chain: B1 chain with C119A, A162C
notes: as for B1
B7: MBP-ALAD C122A (enzyme, human, UniProt P13716 1-330, looked up)
chain: B1 chain with C122A, A162C
notes: as for B1
B8: MBP-ALAD C124A (enzyme, human, UniProt P13716 1-330, looked up)
chain: B1 chain with C124A, A162C
notes: as for B1
B9: MBP-ALAD C132A (enzyme, human, UniProt P13716 1-330, looked up)
chain: B1 chain with C132A, A162C
notes: as for B1

What was measured:
[1] = target: the molecule itself; assay: native gel or EMSA; NativePAGE Bis-Tris gel; MBP-ALAD proteins expressed along with the isc operon in E. coli and purified anaerobically
[2] = target: the molecule itself; assay: native gel or EMSA; NativePAGE Bis-Tris gel; aerobically purified, EDTA-treated metal-free wild-type ALAD (aero-apo-ALAD WT)

Row | Protein | stoichiometry N [1] | stoichiometry N [2]
1 | B1 | 6 | –
2 | B2 | 6 | –
3 | B3 | 6 | –
4 | B4 | 6 | –
5 | B5 | – | 6
6 | B6 | 6 | –
7 | B7 | 6 | –
8 | B8 | 6 | –
9 | B9 | 6 | –
